This is an account of results in patent US20230227568A1 (Pieris, published 2023).

Experiment [1] has as its target T1, human 4-1BB on cells (human, UniProt Q07011 24-255). Description: cell-based or functional assay.
The target of experiment [2] is T1, human 4-1BB on cells. Kind of experiment: flow cytometry, Flp-In-CHO::hu4-1BB cells. On the procedure:
(§1) CHO cells were stably transfected with human 4-1BB, cynomolgus 4-1BB, or a mock control using the Flp-In system (Life Technologies) according to the manufacturer's instructions. Transfected CHO cells were maintained in Ham's F12 medium (Life Technologies) supplemented with 10% Fetal Calf Serum (Biochrom) and 500 μg/ml Hygromycin B (Roth). Cells were cultured in cell culture flasks according to manufacturer's instruction (37° C., 5% CO₂ atmosphere).
(§2) 5×10⁴ cells per well were incubated for 1 h in ice-cold PBS containing 5% fetal calf serum (PBS-FCS). A dilution series of the tested multimeric proteins (SEQ ID NOs: 38-44 and 46-55), the 4-1BB-targeting lipocalin mutein as included in the multimeric proteins (SEQ ID NO: 64) or the GPC3-targeting lipocalin SEQ ID NO: 90 were added to the cells and incubated for 1 h on ice. Cells were washed twice with PBS and then incubated with a rabbit anti-NGAL or a goat anti-human IgG labeled with fluorescent dye Alexa 488 for 30 min on ice. Human IgG4 isotype (SEQ ID NOs: 29 and 30) and lipocalin mutein SEQ ID NO: 8 were tested as a negative control. Cells were subsequently washed and analyzed using iQue Flow cytometer (Intellicyte Screener). Mean geometric fluorescent signals were plotted and fitted with Graphpad software using nonlinear regression (shared bottom, four parameters, variable slope).

Experiment [3] addresses T2, cynomolgus 4-1BB on CHO cells (cynomolgus, UniProt A9YYE7 24-254).
T2 construct: also called Flp-In-CHO::cyno4-1BB; cynomolgus 4-1BB-expressing CHO cells
Description: flow cytometry, Flp-In-CHO::cyno4-1BB cells. The method, then:
as §1, §2
Background: In flow cytometry, cells or beads pass a laser one at a time.

Experiment [4] concerns the target T3, recombinant hu4-1BB-His (human 4-1BB with a C-terminal polyhistidine tag, R&D Systems) (human, UniProt Q07011 24-186).
T3 construct: Bought; not shown: C-terminal polyhistidine tag
Kind of experiment: ELISA, hu4-1BB-His coated, detection anti-NGAL-HRP. The method, then: Recombinant hu4-1BB-His (human 4-1BB with a C-terminal polyhistidine tag, R&D Systems) at the concentration of 1 μg/mL in PBS was coated overnight on microtiter plates at 4° C. After washing with PBS-0.05% T (PBS supplemented with 0.05% (v/v) Tween 20), the plates were blocked with 2% BSA (w/v) in PBS-0.1% T (PBS supplemented with 0.1% (v/v) Tween 20) for 1 h at room temperature. After washing with 100 μL PBS-0.05% T five times, exemplary multimeric proteins (SEQ ID NOs: 38-44 and 46-53) or 4-1BB-specific lipocalin mutein as included in the multimeric protein (SEQ ID NO: 64) at different concentrations, ranging from 100 to 0.002 nM, were added to the wells and incubated for 1 h at room temperature, followed by another wash step. Bound molecules under study were detected by incubation with 1:1000 diluted anti-NGAL-HRP in PBS-0.1% T-2% BSA. After an additional wash step, fluorogenic HRP substrate (QuantaBlu, Thermo) was added to each well and the fluorescence intensity was detected using a fluorescence microplate reader.
The results of exemplary experiments are depicted in FIG. 2, together with the fit curves resulting from a 1:1 binding sigmoidal fit, where the EC₅₀ value and the maximum signal were free parameters, and the slope was fixed to one. The observed EC₅₀ values toward the hu4-1BB of all tested multimeric proteins were in the sub nanomolar range.
(In general: An ELISA detects its analyte on a solid surface through an enzyme-linked reagent.)

Experiment [5] concerns the target T4, hu4-1BB-Fc (R&D Systems) (human, UniProt Q07011 24-186).
T4 construct: Bought; also called human 4-1BB; not shown: human IgG Fc of the bought fusion
Kind of experiment: SPR (Biacore 8K), hu4-1BB-Fc captured by anti-human IgG Fc; apparent value, 1:1 fit. On the procedure: The anti-human IgG Fc antibody (GE Healthcare) was immobilized on a CM5 sensor chip using standard amine chemistry: the carboxyl groups on the chip were activated using 1-ethyl-3-(3-dimethylaminopropyl)-carbodiimide (EDC) and N-hydroxysuccinimide (NHS). Subsequently, anti-human IgG Fc antibody solution (GE Healthcare) at a concentration of 25 μg/mL in 10 mM sodium acetate (pH 5.0) was applied at a flow rate of 5 μL/min until an immobilization level of 4000-10000 resonance units (RU) was achieved. Residual non-reacted NHS-esters were blocked by passing a solution of 1 M ethanolamine across the surface. The reference channel was treated in an analogous manner. Subsequently, hu4-1BB-Fc (R&D Systems) at 0.3 μg/mL was captured by the anti-human IgG-Fc antibody at the chip surface for 180 s at a flow rate of 10 μL/min.
The binding assay was carried out with a contact time of 180 s, a dissociation time of 1200 s or 3000 s and a flow rate of 30 μL/min. All measurements were performed at 25° C. Lipocalin mutein SEQ ID NO: 64 as included in the multimeric proteins was also tested as […]. […] Prior to the protein measurements, three startup cycles were performed for conditioning purposes. Data were evaluated with Biacore Evaluation software. Double referencing was used and the 1:1 binding model was used to fit the raw data.

Experiment [6] has as its target T5, human GPC3 on HepG2 cells (human, UniProt P51654 25-554).
T5 construct: whole, on cells; Endogenous GPC3 of the tumor cell line; also called GPC3-positive tumor cell line HepG2; human GPC3-expressing HepG2 cells
Kind of experiment: flow cytometry, HepG2 cells. On the procedure:
GPC3-positive tumor cell line HepG2 was cultured in Dulbecco's Modified Eagle's Medium ([…], Pan Biotech) supplemented with 10% Fetal Calf Serum (Sigma-Aldrich) and in cell culture flasks according to manufacturer's instruction (37° C., 5% CO₂ atmosphere).
as §2

T2 sequence (A9YYE7 entry or part of it limits assumed): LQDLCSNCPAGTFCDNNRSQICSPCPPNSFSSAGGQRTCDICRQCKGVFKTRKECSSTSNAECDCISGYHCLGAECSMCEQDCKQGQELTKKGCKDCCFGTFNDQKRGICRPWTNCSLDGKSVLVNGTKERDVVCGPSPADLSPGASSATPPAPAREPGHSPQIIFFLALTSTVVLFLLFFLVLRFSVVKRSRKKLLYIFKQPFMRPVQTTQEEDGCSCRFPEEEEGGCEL
T1 sequence (Q07011 24-255): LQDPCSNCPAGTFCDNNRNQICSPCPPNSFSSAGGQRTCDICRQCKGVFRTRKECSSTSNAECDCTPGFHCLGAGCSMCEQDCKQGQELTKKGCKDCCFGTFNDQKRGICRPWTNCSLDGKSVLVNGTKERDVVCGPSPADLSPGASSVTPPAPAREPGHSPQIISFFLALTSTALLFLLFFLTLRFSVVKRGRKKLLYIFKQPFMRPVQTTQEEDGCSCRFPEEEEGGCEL
T5 sequence (P51654 25-554 limits assumed): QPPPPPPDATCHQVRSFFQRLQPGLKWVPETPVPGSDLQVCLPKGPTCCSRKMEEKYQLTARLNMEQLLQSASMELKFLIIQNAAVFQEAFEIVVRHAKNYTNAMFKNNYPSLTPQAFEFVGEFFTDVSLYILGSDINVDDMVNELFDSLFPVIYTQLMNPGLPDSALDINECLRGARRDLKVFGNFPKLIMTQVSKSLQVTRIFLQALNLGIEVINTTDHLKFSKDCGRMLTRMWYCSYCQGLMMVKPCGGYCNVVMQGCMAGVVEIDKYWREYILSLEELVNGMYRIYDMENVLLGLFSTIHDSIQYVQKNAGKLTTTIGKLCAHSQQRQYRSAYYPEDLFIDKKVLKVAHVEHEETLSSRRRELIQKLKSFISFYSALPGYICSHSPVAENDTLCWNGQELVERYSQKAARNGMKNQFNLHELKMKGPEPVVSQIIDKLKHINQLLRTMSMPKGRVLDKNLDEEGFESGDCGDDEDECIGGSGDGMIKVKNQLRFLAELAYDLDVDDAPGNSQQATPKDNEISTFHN

B1: multimeric protein SEQ ID NO: 53 (designed binder)
chain: GVRLWATRQAMLGQVHEVPEGWLIFVAEQEELYVRVQNGFRKVQLEARTPLGGGGSGGGGSGGGGSQDSTSDLIPAPPLSKVPLQQNFQDNQFHGKWYVVGQAGNIRLREDKDPIKMMATIYELKEDKSYDVTMVKFDDKKCMYDIWTFVPGSQPGEFTLGKIKSFPGHTSSLVRVVSTNYNQHAMVFFKFVFQNREEFYITLYGRTKELTSELKENFIRFSKSLGLPENHIVFPVPIDQCIDGGGGGSGGGGSGGGGSQDSTSDLIPAPPLSKVPLQQNFQDNQFHGKWYVVGQAGNIRLREDKDPIKMMATIYELKEDKSYDVTMVKFDDKKCMYDIWTFVPGSQPGEFTLGKIKSFPGHTSSLVRVVSTNYNQHAMVFFKFVFQNREEFYITLYGRTKELTSELKENFIRFSKSLGLPENHIVFPVPIDQCIDGGGSGGAPEQKLISEEDLGSHHHHHHHHHH
In general, EC50 refers to the concentration giving half of the maximal effect. A word on the koff: it is the rate constant with which the complex falls apart. Usually kon stands for a measure of how fast the partners come together. As to B1, the “EC50 [nM], 4-1BB bioassay (NFκB-luc2/4-1BB Jurkat luminescence), with HepG2 cells” value (from here on “EC50 [nM], 4-1BB bioassay”) in experiment [1] amounted to 1.83 nM. In experiment [2], this molecule displayed an EC50 of 4.2 nM. Besides, the midpoint of the response in experiment [3], the EC50, lay at 4.55 nM. Also, the 50% effective concentration (EC50) in experiment [4] was determined as 0.14 nM. Moreover, in experiment [5], the Kd came to 0.13 nM, the koff amounted to 9.99e-06 s⁻¹ and the kon is 77100 M⁻¹ s⁻¹.

B2: multimeric protein SEQ ID NO: 50 (designed binder)
chain: QDSTSDLIPAPPLSKVPLQQNFQDNQFHGKWYVVGQAGNIRLREDKDPIKMMATIYELKEDKSYDVTMVKFDDKKCMYDIWTFVPGSQPGEFTLGKIKSFPGHTSSLVRVVSTNYNQHAMVFFKFVFQNREEFYITLYGRTKELTSELKENFIRFSKSLGLPENHIVFPVPIDQCIDGGGGGSGGGGSGGGGSGGGGSGGGGSGVRLWATRQAMLGQVHEVPEGWLIFVAEQEELYVRVQNGFRKVQLEARTPLGGGGSGGGGSGGGGSQDSTSDLIPAPPLSKVPLQQNFQDNQFHGKWYVVGQAGNIRLREDKDPIKMMATIYELKEDKSYDVTMVKFDDKKCMYDIWTFVPGSQPGEFTLGKIKSFPGHTSSLVRVVSTNYNQHAMVFFKFVFQNREEFYITLYGRTKELTSELKENFIRFSKSLGLPENHIVFPVPIDQCIDGGGSGGAPEQKLISEEDLGSHHHHHHHHHH
For B2, in experiment [1], the “EC50 [nM], 4-1BB bioassay” value came to 0.92 nM. Further, the values for the 50% effective concentration (EC50) in experiment [2], in experiment [3] and in experiment [4] were 2.49 nM, 2.62 nM and 0.13 nM, respectively. In addition, the Kd in experiment [5] was determined as 0.17 nM. Further, in experiment [5], the koff came out at 1.36e-05 s⁻¹. Besides, in experiment [5], the kon amounted to 78800 M⁻¹ s⁻¹.

B3: multimeric protein SEQ ID NO: 51 (designed binder)
chain: QDSTSDLIPAPPLSKVPLQQNFQDNQFHGKWYVVGQAGNIRLREDKDPIKMMATIYELKEDKSYDVTMVKFDDKKCMYDIWTFVPGSQPGEFTLGKIKSFPGHTSSLVRVVSTNYNQHAMVFFKFVFQNREEFYITLYGRTKELTSELKENFIRFSKSLGLPENHIVFPVPIDQCIDGAEAAAKEAAAKEAAAKAGVRLWATRQAMLGQVHEVPEGWLIFVAEQEELYVRVQNGFRKVQLEARTPLGGGGSGGGGSGGGGSQDSTSDLIPAPPLSKVPLQQNFQDNQFHGKWYVVGQAGNIRLREDKDPIKMMATIYELKEDKSYDVTMVKFDDKKCMYDIWTFVPGSQPGEFTLGKIKSFPGHTSSLVRVVSTNYNQHAMVFFKFVFQNREEFYITLYGRTKELTSELKENFIRFSKSLGLPENHIVFPVPIDQCIDGGGSGGAPEQKLISEEDLGSHHHHHHHHHH
Regarding B3, in experiment [1], the “EC50 [nM], 4-1BB bioassay” value amounted to 0.97 nM. For the same molecule, the response in experiment [2] was half-maximal at 4.41 nM (EC50). In addition, the response in experiment [3] was half-maximal at 4.41 nM (EC50). Further, in experiment [4], the EC50 came out at 0.15 nM. In experiment [5], the Kd was 0.36 nM, the koff is 2.53e-05 s⁻¹ and the kon turned out to be 71000 M⁻¹ s⁻¹.

B4: GPC3-specific lipocalin mutein SEQ ID NO: 90 (designed binder)
chain: QDSTSDLIPAPPLSKVPLQQNFQDNQFQGKWYVVGRAGNVGLREDKDPPKMWATIYELKEDKSYDVTNVRFARKKCTYSIGTFVPGSQPGEFTLGQIKSEPGGTANLVRVVSTNYNQHAMVFFKEVYQNREIFFIILYGRTKELTSELKENFIRFSKSLGLPENHIVFPVPIDQCIDG
notes: Monomeric hNGAL mutein
Regarding B4, in experiment [6], the midpoint of the response, the EC50, lay at 1.53 nM.

B5: multimeric protein SEQ ID NO: 49 (designed binder)
chain: QDSTSDLIPAPPLSKVPLQQNFQDNQFHGKWYVVGQAGNIRLREDKDPIKMMATIYELKEDKSYDVTMVKFDDKKCMYDIWTFVPGSQPGEFTLGKIKSFPGHTSSLVRVVSTNYNQHAMVFFKFVFQNREEFYITLYGRTKELTSELKENFIRFSKSLGLPENHIVFPVPIDQCIDGGGGGSGVRLWATRQAMLGQVHEVPEGWLIFVAEQEELYVRVQNGFRKVQLEARTPLGGGGSGGGGSGGGGSQDSTSDLIPAPPLSKVPLQQNFQDNQFHGKWYVVGQAGNIRLREDKDPIKMMATIYELKEDKSYDVTMVKFDDKKCMYDIWTFVPGSQPGEFTLGKIKSFPGHTSSLVRVVSTNYNQHAMVFFKFVFQNREEFYITLYGRTKELTSELKENFIRFSKSLGLPENHIVFPVPIDQCIDGGGSGGAPEQKLISEEDLGSHHHHHHHHHH
For B5, the “EC50 [nM], 4-1BB bioassay” value in experiment [1] is 0.9 nM. Moreover, the values for the EC50 in experiment [2], in experiment [3] and in experiment [4] were 4.99 nM, 2.75 nM and 0.13 nM, respectively. Further, the Kd in experiment [5] was determined as 0.21 nM. Further, in experiment [5], the koff was found to be 1.91e-05 s⁻¹. For the same molecule, the kon in experiment [5] stood at 90200 M⁻¹ s⁻¹.
